Measured values reported in paper PMC9418424.

Target: (AcA4)2KD amphiphilic peptide ((Ac-Ala-Ala-Ala-Ala)2-Lys-Asp-OH)
Assay: dynamic light scattering

(AcA4)2KD amphiphilic peptide ((Ac-Ala-Ala-Ala-Ala)2-Lys-Asp-OH)
critical aggregation concentration: 0.8 mM
